Where two headings read alike, the source gives them in different places. Bridges are numbered along the chain shown (N, C = ends). Where no end group is shown, it is not given here. [ ]: non-standard residue; d: D form. dCha = N[C@H](CC1CCCCC1)C(=O)O
Legend:
human MCH-1R [1] = biological target: T1, human MCH-1R (human, UniProt Q99705 1-353); experiment: SPA competition with [125I]-human MCH (Phe13, Tyr19) on receptor membranes
T1 construct: also called MCH-R1
Procedure: (§1) For the SPA-based assay, WGA-PVT beads (NEN Life Sciences Products) were resuspended in Dulbecco's PBS with calcium and magnesium (500 mg beads in 4 ml PBS). […] The suspension was mixed gently for 20 minutes, 12.3 ml of assay buffer and protease inhibitors were added (final concentration given): 2 μg/ml leupeptin, 10 μM phosphoramidon, 40 μg/ml bacitracin, 5 μg/ml aprotinin, 0.1 mM Pefabloc.
(§2) Coated beads were kept on ice until use. […] Binding reactions were allowed to proceed at room temperature for 3 hours. Quantitation was performed by scintillation counting (TopCount device).

[2] = biological target: T2, human melanin concentrating hormone type 2 receptor (MCH-2R) (human, UniProt Q969V1 1-340); experiment: as above
T2 construct: also called MCH-R2
Procedure: as §1, §2

human MCH-1R [3] = biological target: T1, human MCH-1R; experiment: cell-based or functional assay
[4] = biological target: T2, human melanin concentrating hormone …; experiment: cell-based or functional assay
human MCH-1R [5] = biological target: T1, human MCH-1R; experiment: cell-based or functional assay; remark: listed apart in the source
[6] = biological target: T2, human melanin concentrating hormone …; experiment: cell-based or functional assay; remark: listed apart in the source
human MCH-1R [7] = biological target: T1, human MCH-1R; experiment: SPA competition with [125I]-human MCH (Phe13, Tyr19) on receptor membranes; remark: listed apart in the source
Procedure: as §1, §2

[8] = biological target: T2, human melanin concentrating hormone …; experiment: as above; remark: listed apart in the source
Procedure: as §1, §2

T1 sequence (Q99705 whole entry, form in doubt): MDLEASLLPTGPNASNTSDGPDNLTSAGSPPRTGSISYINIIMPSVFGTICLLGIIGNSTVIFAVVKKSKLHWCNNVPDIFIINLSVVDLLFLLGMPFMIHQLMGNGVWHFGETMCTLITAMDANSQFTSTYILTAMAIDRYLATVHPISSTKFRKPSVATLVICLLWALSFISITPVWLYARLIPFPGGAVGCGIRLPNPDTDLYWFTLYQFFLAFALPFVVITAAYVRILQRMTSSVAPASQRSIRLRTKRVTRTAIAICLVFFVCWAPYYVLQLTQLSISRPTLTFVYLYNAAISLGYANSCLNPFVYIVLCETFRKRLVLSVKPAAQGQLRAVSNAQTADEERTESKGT
T2 sequence (Q969V1 whole entry, form in doubt): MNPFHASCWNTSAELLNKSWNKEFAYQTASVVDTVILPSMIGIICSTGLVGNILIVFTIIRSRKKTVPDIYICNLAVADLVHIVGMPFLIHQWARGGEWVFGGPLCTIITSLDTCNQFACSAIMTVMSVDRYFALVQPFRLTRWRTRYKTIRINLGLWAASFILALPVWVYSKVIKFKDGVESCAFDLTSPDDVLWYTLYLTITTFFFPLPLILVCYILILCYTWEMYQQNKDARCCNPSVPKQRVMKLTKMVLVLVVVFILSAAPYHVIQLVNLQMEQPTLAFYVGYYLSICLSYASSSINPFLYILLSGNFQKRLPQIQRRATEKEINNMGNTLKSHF

IC50 (human MCH-1R [1]) [nM] | IC50 [2] [nM] | Activation % at 10 µM (aequorin functional assay) (human MCH-1R [3]) [%] | EC50 (aequorin functional assay) (human MCH-1R [3]) [nM] | Activation % at 10 µM (aequorin functional assay) [4] [%] | EC50 (aequorin functional assay) [4] [nM] | Activation % at 10 µM (aequorin functional assay) (human MCH-1R [5]) [%] | EC50 (aequorin functional assay) (human MCH-1R [5]) [nM] | Activation % at 10 µM (aequorin functional assay) [6] [%] | EC50 (aequorin functional assay) [6] [nM] | IC50 (human MCH-1R [7]) [nM] | IC50 [8] [nM] | Binder
0.5 | 2.4 | 97 | 12.7 | 100 | 38.9 |  |  |  |  |  |  | DFDALRCMLGRVYRPCWQV (disulfide 7-16, also called Ala^4) [SEQ. ID. NO. 44]
0.3 | 2 | 96 | 20.3 | 94 | 17.9 |  |  |  |  |  |  | DFDMARCMLGRVYRPCWQV (disulfide 7-16, also called Ala^5) [SEQ. ID. NO. 45]
253 | 670 | 20 | 2300 |  | > 1000 |  |  |  |  |  |  | DFDMLRCMLGRVARPCWQV (disulfide 7-16, also called Ala^13) [SEQ. ID. NO. 51]
0.9 | 9.5 | 96 | 22 | 92 | 95.7 |  |  |  |  |  |  | DFDMLRCMAGRVYRPCWQV (disulfide 7-16, also called Ala^9) [SEQ. ID. NO. 48]
0.9 | 25 | 95 | 38.3 | 98 | 83.6 |  |  |  |  |  |  | DFDMLRCMLGRAYRPCWQV (disulfide 7-16, also called Ala^12) [SEQ. ID. NO. 50]
40.1 | 40 | 56 | 731 | 94 | 125 |  |  |  |  |  |  | DFDMLRCALGRVYRPCWQV (disulfide 7-16) [SEQ. ID. NO. 47]
0.7 | 9.5 | 99 | 36.1 | 97 | 80.8 |  |  |  |  |  |  | DFDMLRCMLGRVYRPCWAV (disulfide 7-16, also called Ala^18) [SEQ. ID. NO. 55]
0.2 | 1.1 | 97 | 9.9 | 102 | 28.6 |  |  |  |  |  |  | DADMLRCMLGRVYRPCWQV (disulfide 7-16, also called Ala^2) [SEQ. ID. NO. 42]
169 | 290 | 24 | 5240 |  | > 1000 |  |  |  |  |  |  | DFDMLRCMLGAVYRPCWQV (disulfide 7-16) [SEQ. ID. NO. 49]
1.4 | 62 | 97 | 28.3 | 81 | 186 |  |  |  |  |  |  | DFDMLRCMLGRVYAPCWQV (disulfide 7-16, also called Ala^14) [SEQ. ID. NO. 52]
 |  |  |  |  |  | 47 | 2560 | 113 | 7 | 31 | 1.6 | Ac-RCML[dS]RVYRPC-NH2 (disulfide 2-11 (inferred), also called D-Ser^10) [SEQ. ID. NO. 19]
 |  |  |  |  |  | 0.1 | > 10000 | 74 | 207 | 11 | 74 | Ac-RCML[dCha]RVYRPC-NH2 (disulfide 2-11 (inferred), also called D-Cha^10) [SEQ. ID. NO. 16]

— patent US20040147432A1 (MERCK, published 2004)
